Data set [1] relates to HeLa Kyoto. As to the kind of experiment: thermal stability score vs G1/S (z-score of summed log2 fold changes over temperatures); higher = more thermally stable than in G1/S.
The test system of data set [2] is HeLa Kyoto. The data set can be described thus: solubility change mitosis vs G1/S (difference of NP-40 vs SDS log2 ratios) (log2 ratio difference); higher = more soluble in mitosis.
Data set [3] deals with HeLa Kyoto. As to the kind of experiment: solubility in G1/S (NP-40 vs SDS abundance) (log2 ratio); higher = more soluble. The settings on record: cell cycle stage: G1/S.
Setting [4] is: cell cycle stage: early G1 (4.5 h after nocodazole release).
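For solubility change mitosis vs G1/S (difference of NP-40 vs SDS log2 ratios) in this document: synchronized HeLa Kyoto cells (double thymidine block for G1/S, nocodazole release for mitosis), protein amounts in NP-40 versus SDS lysates quantified by mass spectrometry, three biological replicates.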
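For solubility in G1/S (NP-40 vs SDS abundance) in this document: HeLa Kyoto cells arrested at G1/S by double thymidine block, proteins quantified by TMT10plex mass spectrometry in mild NP-40 versus SDS extracts, three biological replicates.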
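For thermal stability score vs G1/S (z-score of summed log2 fold changes over temperatures) in this document: synchronized HeLa Kyoto cells, proteins quantified by TMT10plex mass spectrometry, three biological replicates, mitosis taken 0.5 h after nocodazole release, G1/S directly after double thymidine block.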

“MKEGRGSFSVERGPRKERETAQSGMWKGNSPAGSQGAAMEGTGGELGGQGNWGPEDAPGLLARASLIMLPWPLPLASSALTLLFGALTSLFLWYCYRLGSQDMQALGAGSRAGGVRGGPVGCSEAGGPSPGGPGDPGEGPRTEGLVSRRLRAYARRYSWAGMGRVRRAAQGGPGPGRGPGVLGIQRPGLLFLPDLPSAPFVPRDAQRHDVELLESSFPAILRDFGAVSWDFSGTTPPPRGWSPPLAPGCYQLLLYQAGRCQPSNCRRCPGAYRALRGLRSFMSANTFGNAGFSVLLPGARLEGRCGPTNARVRCHLGLKIPPGCELVVGGEPQCWAEGHCLLVDDSFLHTVAHNGSPEDGPRVVFIVDLWHPNVAGAERQALDFVFAPDP [ASPHD1]”: the results for the thermal stability score in the data set on HeLa Kyoto [1] (setting [4]) and with HeLa Kyoto [1] (cell cycle stage: mitosis) were 1.03 and 1.87, respectively. In addition, the “solubility change mitosis (log2)” value in the data set with HeLa Kyoto [2] was -0.229. Further, the “solubility in G1/S (log2)” value with HeLa Kyoto [3] is 0.213.
As to “MPFLHGFRRIIFEYQPLVDAILGSLGIQDPERQESLDRPSYVASEESRILVLTELLERKAHSPFYQEGVSNALLKMAELGLTRAADVLLRHGANLNFEDPVTYYTALHIAVLRNQPDMVELLVHHGADVNRRDRIHESSPLDLASEEPERLPCLQRLLDLGADVNAADKHGKTALLHALASSDGVQIHNTENIRLLLEGGADVKATTKDGDTVFTCIIFLLGETVGGDKEEAQMINRFCFQVTRLLLAHGADPSECPAHESLTHICLKSFKLHFPLLRFLLESGAAYNCSLHGASCWSGFHIIFERLCSHPGCTEDESHADLLRKAETVLDLMVTNSQKLQLPENFDIHPVGSLAEKIQALHFSLRQLESYPPPLKHLCRVAIRLYLQPWPVDVKVKALPLPDRLKWYLLSEHSGSVEDDI [ASB6]”, the thermal stability score with HeLa Kyoto [1] (setting [4]) was determined as 0.0535; in the data set on HeLa Kyoto [1] (cell cycle stage: mitosis), 0.637. The “solubility change mitosis (log2)” value in the data set with HeLa Kyoto [2] is 0.0228. Moreover, the “solubility in G1/S (log2)” value in the data set on HeLa Kyoto [3] is 0.206.
The corresponding values for “MARACLQAVKYLMFAFNLLFWLGGCGVLGVGIWLAATQGSFATLSSSFPSLSAANLLIITGAFVMAIGFVGCLGAIKENKCLLLTFFLLLLLVFLLEATIAILFFAYTDKIDRYAQQDLKKGLHLYGTQGNVGLTNAWSIIQTDFRCCGVSNYTDWFEVYNATRVPDSCCLEFSESCGLHAPGTWWKAPCYETVKVWLQENLLAVGIFGLCTALVQILGLTFAMTMYCQVVKADTYCA [TSPAN4]” are -5.28e-17, 1.16e-18, 0.125 and -0.165.
In the case of “MEGVSALLARCPTAGLAGGLGVTACAAAGVLLYRIARRMKPTHTMVNCWFCNQDTLVPYGNRNCWDCPHCEQYNGFQENGDYNKPIPAQYLEHLNHVVSSAPSLRDPSQPQQWVSSQVLLCKRCNHHQTTKIKQLAAFAPREEGRYDEEVEVYRHHLEQMYKLCRPCQAAVEYYIKHQNRQLRALLLSHQFKRREADQTHAQNFSSAVKSPVQVILLRALAFLACAFLLTTALYGASGHFAPGTTVPLALPPGGNGSATPDNGTTPGAEGWRQLLGLLPEHMAEKLCEAWAFGQSHQTGVVALGLLTCLLAMLLAGRIRLRRIDAFCTCLWALLLGLHLAEQHLQAASPSWLDTLKFSTTSLCCLVGFTAAVATRKATGPRRFRPRRFFPGDSAGLFPTSPSLAIPHPSVGGSPASLFIPSPPSFLPLANQQLFRSPRRTSPSSLPGRLSRALSLGTIPSLTRADSGYLFSGSRPPSQVSRSGEFPVSDYFSLLSGSCPSSPLPSPAPSVAGSVASSSGSLRHRRPLISPARLNLKGQKLLLFPSPPGEAPTTPSSSDEHSPHNGSLFTMEPPHVPRKPPLQDVKHALDLRSKLERGSACSNRSIKKEDDSSQSSTCVVDTTTRGCSEEAATWRGRFGPSLVRGLLAVSLAANALFTSVFLYQSLR [TMEM201]”, the thermal stability score with HeLa Kyoto [1] (setting [4]) was found to be 0.522; in the data set with HeLa Kyoto [1] (cell cycle stage: mitosis), 0.638. In addition, the “solubility change mitosis (log2)” value in the data set on HeLa Kyoto [2] worked out at 0.283. In the data set on HeLa Kyoto [3], the “solubility in G1/S (log2)” value was -0.162.
Turning to “MALFYVARYPGPDAAAAAGPEGAEAGAHGRARALLERLQSRARERQQQREPAQTEAAASTEPATRRRRRPRRRRRVNDAEPGSPEAPQGKRRKADGEDAGAESNEEAPGEPSAGSSEEAPGEPSAGSSEEAPGERSTSASAEAAPDGPALEEAAGPLVPGLVLGGFGKRKAPKVQPFLPRWLAEPNCVRRNVTEDLVPIEDIPDVHPDLQKQLRAHGISSYFPVQAAVIPALLESAACGFLVGRGGYRPSDLCVSAPTGSGKTLAFVIPVVQALLSRVVCHIRALVVLPTKELAQQVSKVFNIYTDATPLRVSLVTGQKSLAKEQESLVQKTADGYRCLADIVVATPGRLVDHIDQTPGFSLQQLRFLIIDEADRMIDSMHQSWLPRVVAAAFQSEDPADPCALLQRRQAQAVTAASTCCPQMPLQKLLFSATLTQNPEKLQQLGLHQPRLFSTGLAHRGLEDTDGDGDSGKYAFPVGLTHHYVPCSLSSKPLVVLHLVLEMGFSRVLCFTNSRENSHRLFLLVQAFGGVDVAEFSSRYGPGQRRMILKQFEQGKIQLLISTDATARGIDVQGVELVVNYDAPQYLRTYVHRVGRTARAGKTGQAFTLLLKVQERRFLRMLTEAGAPELQRHELSSKLLQPLVPRYEEALSQLEESVKEERKQRAA [DDX51]”, the thermal stability score in the data set on HeLa Kyoto [1] (setting [4]) was -0.0942; with HeLa Kyoto [1] (cell cycle stage: mitosis) it was 1.3. The “solubility change mitosis (log2)” value in the data set with HeLa Kyoto [2] is 1.23. In addition, the “solubility in G1/S (log2)” value in the data set with HeLa Kyoto [3] was -1.48.

Values taken from the supplement of paper PMC5998384.
